Experimental data from US20240327815A1.

What was measured:
[1] = molecular target: B.1.1.7 (Alpha) SARS-CoV-2 spike protein, plate-coated (MSD) (SARS-CoV-2) (UniProt P0DTC2); assay: MSD competition vs labelled ACE2
[2] = molecular target: B.1.351 (Beta) SARS-CoV-2 spike protein, plate-coated (MSD) (SARS-CoV-2) (UniProt P0DTC2); assay: MSD competition vs labelled ACE2
[3] = molecular target: Delta SARS-CoV-2 spike protein, plate-coated (MSD) (SARS-CoV-2) (UniProt P0DTC2); assay: MSD competition vs labelled ACE2
[4] = molecular target: Omicron SARS-CoV-2 spike protein, plate-coated (MSD) (SARS-CoV-2) (UniProt P0DTC2); assay: MSD competition vs labelled ACE2
[5] = molecular target: SARS-CoV-2 Delta (B.1.617.2) spike RBD (SPR) (SARS-CoV-2) (UniProt P0DTC2); assay: SPR
[6] = molecular target: SARS-CoV-2 Delta (B.1.617.2) spike RBD (SPR) (SARS-CoV-2) (UniProt P0DTC2); assay: SPR, 1:1 model
[7] = molecular target: Alpha SARS-CoV-2 spike on pseudotyped lentivirus (SARS-CoV-2) (UniProt P0DTC2); assay: cell-based or functional assay
[8] = molecular target: Beta SARS-CoV-2 spike on pseudotyped lentivirus (SARS-CoV-2) (UniProt P0DTC2); assay: cell-based or functional assay

## Bamlanivimab + Etesevimab
[1]
  IC50: 80 pM
[2]
  IC50: 310 pM
[3]
  IC50: 160 pM
[4]
  IC50: 590 pM

## REGN10933 (Casirivimab) (antibody)
[5]
  Kd: 69.6 pM
[6]
  Kd: 69.6 pM

## REGN10987 (Imdevimab) (antibody)
[5]
  Kd: 105 pM
[6]
  Kd: 105 pM

## Sotrovimab (antibody)
[7]
  Pseudovirus Neutralization (IC50, nM): 3.32 nM
[8]
  Pseudovirus Neutralization (IC50, nM): 0.01 nM
